Assay results taken from patent publication US11957762B2, “Immune tolerant and non-immune tolerant elastin-like recombinant peptides and methods of use” (University of Utah Research Foundation, priority 2015, dated 2024).

Experiments:
DC2.4 cells = test: Cellular uptake of iTEP-vaccine fusions by DCs; assay type: cell-based, murine
Protocol: Fluorescent labeling of iTEP-vaccine fusions. For the flow cytometry study, the fusions were labeled with the amine-reactive coumarin, 7-diethylaminocoumarin-3-carboxylic acid, through succinimidyl ester to form blue-fluorescent bioconjugates. For the microscopy-based cellular uptake study and the cellular degradation study, the fusions were labeled with Alexa Fluo 488 5-SDP ester (Alexa-488) to form green-fluorescent bioconjugates. The reactions were performed based on the manufacturer's instructions (Molecular Probes by Life Technologies). Briefly, 10 mg of iTEPs were reacted with 1 mg of coumarin or 0.2 mg of Alexa-488 in 0.1 M sodium bicarbonate buffer, pH 8.3 at a final volume of 1 mL. The reaction was carried out with continuous stirring in the dark and at room temperature for 1.5 h. The protein-dye conjugates were purified using Amicon Ultra1-5 (10k) centrifugal filters (Millipore). The coumarin conjugate was measured for their absorbances of at 205 nm (A205) and 433 nm (A433, λmax for coumarin); the Alexa-488 conjugate was measured at 205 nm and 495 nm (A495, λmax for Alexa-488). The iTEP-vaccine fusion concentrations and the degree of labeling (DOL) were calculated based on these equations: […]
Cellular uptake of iTEP-vaccine fusions. […] The fluorescence of the cells was measured by flow cytometry (collecting 5×10^4 events per sample). […]

[1] = Response of NPs to reductants (DLS after GSH or DTT); assay type: physicochemical; settings: 16 hours, by number distribution
Protocol: The next set of experiments tested whether disulfide bonds inside the new NP were reducible and if the NP structure was dissolvable in a reductive environment like cytosol (glutathione, GSH 1-10 mM) (Smith et al., Toxicol Appl Pharmacol, 1996; 140(1):1-12; Wu et al., J Nutr, 2004; 134(3):489-92). The new NP and the ST-NP were treated using two concentrations of GSH, at 37° C. overnight and then analyzed particle structure changes of both NPs by DLS. These concentrations mimic GSH concentrations in either cytoplasm (GSH 1-10 mM) or the extracellular (GSH 1-10 μM) environment (Smith et al., Toxicol Appl Pharmacol, 1996; 140(1):1-12; Cantin et al., Appl Physiol (1985), 1987, 63(1):152-7; Jones et al., Clin Chim Acta, 1998; 275(2):175-84). Both NPs were stable at 10 μM of GSH. The new NP lost its particle structure after being treated with 1 mM of GSH (Table 4). […] In contrast, the ST-NP, as a control, maintained its particle structure regardless of its incubation with any concentration of GSH. Similar results emerged when dithiothreitol (DTT) was used as the reductant except that the new iTEP-NP was not stable in 10 μM of DTT (Table 4). […] The new NP was named the reductive-environment dependable NP or RED-NP.

[2] = SDS-PAGE analysis of NPs after GSH treatment; assay type: physicochemical; settings: GSH overnight, non-reducing gels
Protocol: SDS-PAGE was used to analyze responses of the RED-NP, the MS-NP, and the ST-NP to the treatment of 1 mM GSH. 1 mM but not 10 μM of GSH reduced disulfide bonds inside RED-NP. A large fraction of polymers of the RED-NP fusion (iTEPB70-iTEPA28-(G8C)4-pOVA; (SEQ ID NO: 61)) became monomers due to the treatment of 1 mM GSH, showing as a 50-kDa band on the gel. In contrast, GSH had no effect on polymerization status of the fusions of MS-NP and ST-NP. Non-reducing gels and 25 μg of each fusion were used for the analysis.

[3] = Critical micelle concentration by pyrene assay; assay type: physicochemical; settings: pyrene assay in PBS
Protocol: Measurement of critical micelle concentrations (CMCs) of iTEP-vaccine fusions by pyrene assay. The CMCs of iTEP-vaccine fusions (NPs) were measured through fluorescence spectra by using pyrene as a hydrophobic fluorescent probe as described previously with some adjustments (Ohyanagi et al., Jpn J Clin Oncol, 2011; 41(5); 718-22; Dreher et al., J Am Chem Soc, 2008; 130(2):687-94). Briefly, the fusions were serially 2×time diluted in PBS starting from 250 μM in 96-well black clear-bottom plates. The final volume for each dilution was 150 μL. Three μL of a stock solution of 30 μM pyrene in ethanol was added to each well and mixed well. Fluorescence of these samples were scanned using an Infinite M1000 PRO plate reader (Tecan Trading AG, Switzerland) with the setting: Ex: 334 nm with a slit of 10 nm, Em: ranging 360-400 nm with a slit of 2.5 nm. Four peaks were recorded for pyrene between 360-400 nm. The ratio of emission peak number 1 (I1; 370-373 nm) and emission peak number 3 (I3; 381-384 nm) of pyrene (I1/I3) was plotted as a function of iTEP concentration. The data points were fitted to a sigmoidal-dose response curve, and the CMC was defined as the inflection point of the curve.

[4] = Thermally-induced reversible phase transition (turbidity OD350 vs temperature); assay type: physicochemical
Text: Characterization of thermally-induced, reversible, inverse phase transition of iTEPs and the iTEPB-iTEPA-pOVA fusion. The phase transitions of iTEP or iTEP fusions were characterized by turbidity changes of sample solutions as a function of temperature. Specifically, the optical density at 350 nm (OD350) of a sample solution was monitored using an UV-visible spectrophotometer equipped with a multi-cell thermoelectric temperature controller (Cary 300, Varian Instruments, Walnut Creek, CA) while the solution was heated from 20° C. to 80° C. and then cooled to 20° C. at a rate of 1° C./min. The maximum first derivative of the turbidity curve of a sample was identified. The transition temperature (Tt) of the sample is the temperature that corresponds to the maximum derivative.

Molecule | internalization to DCs (DC2.4 cells; fluorescence microscopy and flow cytometry) | Hydrodynamic diameter (nm) ([1]; DTT 10 μM) | Hydrodynamic diameter (nm) ([1]; DTT 1000 μM) | Hydrodynamic diameter (nm) ([1]; GSH 10 μM) | Hydrodynamic diameter (nm) ([1]; GSH 1000 μM) | Hydrodynamic diameter (nm) ([1]; no reductant (0 μM)) | response to GSH treatment (reduction of disulfide bonds, SDS-PAGE) [2] | CMC (critical micelle concentration) [3] | uptake by DCs, times more than the MS-NP (DC2.4 cells; 5 μM coumarin-labeled fusions, 4 h) | temperature of sharp increase of turbidity (formation of aggregates) [4] | Tt (cooling) ([4]; 25 μM in H2O) | Tt (heating) ([4]; 25 μM in H2O)
RED-NP: reductive-environment dependable NP, disulfide stabilized fusion iTEPB70-iTEPA28-(G8C)4-pOVA (SEQ ID NO: 61) (protein) GGAGVPGGAGVPGGAGVPGGAGVPGGAGVPGGAGVPGGAGVPGGAGVPGGAGVPGGAGVPGGAGVPGGAGVPGGAGVPGGAGVPGGAGVPGGAGVPGGAGVPGGAGVPGGAGVPGGAGVPGGAGVPGGAGVPGGAGVPGGAGVPGGAGVPGGAGVPGGAGVPGGAGVPGGAGVPGGAGVPGGAGVPGGAGVPGGAGVPGGAGVPGGAGVPGGAGVPGGAGVPGGAGVPGGAGVPGGAGVPGGAGVPGGAGVPGGAGVPGGAGVPGGAGVPGGAGVPGGAGVPGGAGVPGGAGVPGGAGVPGGAGVPGGAGVPGGAGVPGGAGVPGGAGVPGGAGVPGGAGVPGGAGVPGGAGVPGGAGVPGGAGVPGGAGVPGGAGVPGGAGVPGGAGVPGGAGVPGGAGVPGGAGVPGGAGVPGGAGVPGGGVLPGVGGVLPGVGGVLPGVGGVLPGVGGVLPGVGGVLPGVGGVLPGVGGVLPGVGGVLPGVGGVLPGVGGVLPGVGGVLPGVGGVLPGVGGVLPGVGGVLPGVGGVLPGVGGVLPGVGGVLPGVGGVLPGVGGVLPGVGGVLPGVGGVLPGVGGVLPGVGGVLPGVGGVLPGVGGVLPGVGGVLPGVGGVLPGVGGCGCGCGCGESIINFEKLTESIINFEKLTGG | as efficient as the ST-NP and more robust than the MS-NP | 8.75 ± 2.03 nm | 6.43 ± 2.01 nm | 37.98 ± 6.72 (NP) nm | 8.35 ± 1.04 nm | 47.11 ± 13.18 (NP) nm | can be reduced by 1 mM but not by 10 μM of GSH | – | – | – | – | –
ST-NP: stable NP of the fusion iTEPB70-iTEPA56-pOVA (SEQ ID NO: 60) (protein) GGAGVPGGAGVPGGAGVPGGAGVPGGAGVPGGAGVPGGAGVPGGAGVPGGAGVPGGAGVPGGAGVPGGAGVPGGAGVPGGAGVPGGAGVPGGAGVPGGAGVPGGAGVPGGAGVPGGAGVPGGAGVPGGAGVPGGAGVPGGAGVPGGAGVPGGAGVPGGAGVPGGAGVPGGAGVPGGAGVPGGAGVPGGAGVPGGAGVPGGAGVPGGAGVPGGAGVPGGAGVPGGAGVPGGAGVPGGAGVPGGAGVPGGAGVPGGAGVPGGAGVPGGAGVPGGAGVPGGAGVPGGAGVPGGAGVPGGAGVPGGAGVPGGAGVPGGAGVPGGAGVPGGAGVPGGAGVPGGAGVPGGAGVPGGAGVPGGAGVPGGAGVPGGAGVPGGAGVPGGAGVPGGAGVPGGAGVPGGAGVPGGAGVPGGAGVPGGAGVPGGGVLPGVGGVLPGVGGVLPGVGGVLPGVGGVLPGVGGVLPGVGGVLPGVGGVLPGVGGVLPGVGGVLPGVGGVLPGVGGVLPGVGGVLPGVGGVLPGVGGVLPGVGGVLPGVGGVLPGVGGVLPGVGGVLPGVGGVLPGVGGVLPGVGGVLPGVGGVLPGVGGVLPGVGGVLPGVGGVLPGVGGVLPGVGGVLPGVGGGGGGGGGCGGGGGGGGCGGGGGGGGCGGGGGGGGCGESIINFEKLTESIINFEKLTGG | – | 52.56 ± 13.67 (NP) nm | 53.10 ± 13.56 (NP) nm | 52.23 ± 13.59 (NP) nm | 50 ± 13.62 (NP) nm | 54.82 ± 12.89 (NP) nm | did not respond to the treatment | 23.94 µM | two | – | – | –
G(GAGVPG)70G(GVLPGVG)28G(ESIINFEKLT)2GG (protein) GGAGVPGGAGVPGGAGVPGGAGVPGGAGVPGGAGVPGGAGVPGGAGVPGGAGVPGGAGVPGGAGVPGGAGVPGGAGVPGGAGVPGGAGVPGGAGVPGGAGVPGGAGVPGGAGVPGGAGVPGGAGVPGGAGVPGGAGVPGGAGVPGGAGVPGGAGVPGGAGVPGGAGVPGGAGVPGGAGVPGGAGVPGGAGVPGGAGVPGGAGVPGGAGVPGGAGVPGGAGVPGGAGVPGGAGVPGGAGVPGGAGVPGGAGVPGGAGVPGGAGVPGGAGVPGGAGVPGGAGVPGGAGVPGGAGVPGGAGVPGGAGVPGGAGVPGGAGVPGGAGVPGGAGVPGGAGVPGGAGVPGGAGVPGGAGVPGGAGVPGGAGVPGGAGVPGGAGVPGGAGVPGGAGVPGGAGVPGGAGVPGGAGVPGGAGVPGGAGVPGGESIINFEKLTESIINFEKLTGG | – | – | – | – | – | – | did not respond to the treatment | 120.6 µM | – | 70 °C | 73.70 ± 0.23 °C | 75.40 ± 0.14 °C
